Measurements: patent publication US20220047716A1, “COMBINATION THERAPIES WITH ANTI-FOLATE RECEPTOR ANTIBODY CONJUGATES” (SUTRO BIOPHARMA, INC., priority 2018, published 2022)

Target: human folate receptor alpha (hFolRα) on cells (human) (UniProt P15328)
Assay: cell-based or functional assay

Chain of human folate receptor alpha (hFolRα) on cells (human) (P15328 25-234 limits assumed): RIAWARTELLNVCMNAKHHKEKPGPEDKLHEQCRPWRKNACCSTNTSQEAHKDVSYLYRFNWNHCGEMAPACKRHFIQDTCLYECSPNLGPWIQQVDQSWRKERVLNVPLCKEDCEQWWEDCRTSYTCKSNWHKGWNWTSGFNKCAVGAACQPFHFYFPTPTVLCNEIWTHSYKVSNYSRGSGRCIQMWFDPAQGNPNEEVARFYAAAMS

ADC Molecule 21 (IMGN853 surrogate, Mov19-sulfo-SPDB-DM4) (antibody)
fold shift of cell killing EC50 on Igrov1 cells on addition of naked antibody: 3 fold
